In the data set the target is T1, RepA (ORF3) (Moraxella bovis ATCC 10900 (plasmid pMbo4.6)) (UniProt D0V0D3).
T1 sequence: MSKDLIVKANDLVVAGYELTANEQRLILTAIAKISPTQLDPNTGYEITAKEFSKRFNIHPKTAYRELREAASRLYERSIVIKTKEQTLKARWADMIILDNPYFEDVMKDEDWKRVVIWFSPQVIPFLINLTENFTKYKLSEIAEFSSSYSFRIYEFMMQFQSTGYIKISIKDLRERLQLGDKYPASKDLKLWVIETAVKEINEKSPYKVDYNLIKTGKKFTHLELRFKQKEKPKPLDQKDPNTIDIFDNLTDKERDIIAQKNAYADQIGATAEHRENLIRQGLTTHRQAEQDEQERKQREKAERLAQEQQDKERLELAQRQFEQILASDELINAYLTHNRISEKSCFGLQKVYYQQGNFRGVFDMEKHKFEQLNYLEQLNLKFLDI
Description: EMSA. The note with it: 10 mM Tris-HCl pH 7.5, 10 mM MgCl2, 100 mM NaCl, 0.2 mM DTT, 5% glycerol, 30 ul, 22 C 20 min; 6% PAGE 0.4x TBE at 4 C. For orientation: A gel shift assay detects complexes by their altered migration in electrophoresis.

Turning to “AAGAATTCGGGCGTGGTTTTGGGGATTGATTTTGTTTTGTCTTTTTAGCTAAAAAAACAAGAAAATTAACAAGAAAAAGAGCCAAAACCGAGTGCTTTTTCGGTTTTGGCGTTTTTTTATTTTTTTAATATATTTTTAATAGTTTTTAGACCCCCTGCAAAGCCTTATGTATCAAAGGTTTGCG (double strand) [orirep32]”, the binding result is recorded as “no binding”. As for “CTAGGAGGGATTGACTACCAAATAGGAGGGATTGACTACTCAAATAGGAGGGATTGACTACTCAAATAGGAGGGATTGACTACCAAATAGGAGTATTTACAATAACTCTTTTTAGGTGTATAATTAATTACTCCTTTTTTGCTAATGAGACCTAAAAATGAGCAAAGATTTAATTGTAGGATCCAA (double strand) [orirep15]”, the binding entry was “binds”.

The values are drawn from publication PMC3557383.
